Target: Biotinylated human CI-MPR domains I-XV (residues 41Q-G2293) (human) (UniProt P11717)
Assay: SPR; equilibrium binding; about 1,000 RU of biotinylated ligand on a streptavidin-coupled CM5 chip, LIMP-2 as analyte; Biacore T100, 25 °C, 10 mM HEPES pH 7.5, 150 mM NaCl, 0.005% Tween 20; one-site saturation binding model

Sequence of Biotinylated human CI-MPR domains I-XV (residues 41Q-G2293) (human) (P11717 41-2293): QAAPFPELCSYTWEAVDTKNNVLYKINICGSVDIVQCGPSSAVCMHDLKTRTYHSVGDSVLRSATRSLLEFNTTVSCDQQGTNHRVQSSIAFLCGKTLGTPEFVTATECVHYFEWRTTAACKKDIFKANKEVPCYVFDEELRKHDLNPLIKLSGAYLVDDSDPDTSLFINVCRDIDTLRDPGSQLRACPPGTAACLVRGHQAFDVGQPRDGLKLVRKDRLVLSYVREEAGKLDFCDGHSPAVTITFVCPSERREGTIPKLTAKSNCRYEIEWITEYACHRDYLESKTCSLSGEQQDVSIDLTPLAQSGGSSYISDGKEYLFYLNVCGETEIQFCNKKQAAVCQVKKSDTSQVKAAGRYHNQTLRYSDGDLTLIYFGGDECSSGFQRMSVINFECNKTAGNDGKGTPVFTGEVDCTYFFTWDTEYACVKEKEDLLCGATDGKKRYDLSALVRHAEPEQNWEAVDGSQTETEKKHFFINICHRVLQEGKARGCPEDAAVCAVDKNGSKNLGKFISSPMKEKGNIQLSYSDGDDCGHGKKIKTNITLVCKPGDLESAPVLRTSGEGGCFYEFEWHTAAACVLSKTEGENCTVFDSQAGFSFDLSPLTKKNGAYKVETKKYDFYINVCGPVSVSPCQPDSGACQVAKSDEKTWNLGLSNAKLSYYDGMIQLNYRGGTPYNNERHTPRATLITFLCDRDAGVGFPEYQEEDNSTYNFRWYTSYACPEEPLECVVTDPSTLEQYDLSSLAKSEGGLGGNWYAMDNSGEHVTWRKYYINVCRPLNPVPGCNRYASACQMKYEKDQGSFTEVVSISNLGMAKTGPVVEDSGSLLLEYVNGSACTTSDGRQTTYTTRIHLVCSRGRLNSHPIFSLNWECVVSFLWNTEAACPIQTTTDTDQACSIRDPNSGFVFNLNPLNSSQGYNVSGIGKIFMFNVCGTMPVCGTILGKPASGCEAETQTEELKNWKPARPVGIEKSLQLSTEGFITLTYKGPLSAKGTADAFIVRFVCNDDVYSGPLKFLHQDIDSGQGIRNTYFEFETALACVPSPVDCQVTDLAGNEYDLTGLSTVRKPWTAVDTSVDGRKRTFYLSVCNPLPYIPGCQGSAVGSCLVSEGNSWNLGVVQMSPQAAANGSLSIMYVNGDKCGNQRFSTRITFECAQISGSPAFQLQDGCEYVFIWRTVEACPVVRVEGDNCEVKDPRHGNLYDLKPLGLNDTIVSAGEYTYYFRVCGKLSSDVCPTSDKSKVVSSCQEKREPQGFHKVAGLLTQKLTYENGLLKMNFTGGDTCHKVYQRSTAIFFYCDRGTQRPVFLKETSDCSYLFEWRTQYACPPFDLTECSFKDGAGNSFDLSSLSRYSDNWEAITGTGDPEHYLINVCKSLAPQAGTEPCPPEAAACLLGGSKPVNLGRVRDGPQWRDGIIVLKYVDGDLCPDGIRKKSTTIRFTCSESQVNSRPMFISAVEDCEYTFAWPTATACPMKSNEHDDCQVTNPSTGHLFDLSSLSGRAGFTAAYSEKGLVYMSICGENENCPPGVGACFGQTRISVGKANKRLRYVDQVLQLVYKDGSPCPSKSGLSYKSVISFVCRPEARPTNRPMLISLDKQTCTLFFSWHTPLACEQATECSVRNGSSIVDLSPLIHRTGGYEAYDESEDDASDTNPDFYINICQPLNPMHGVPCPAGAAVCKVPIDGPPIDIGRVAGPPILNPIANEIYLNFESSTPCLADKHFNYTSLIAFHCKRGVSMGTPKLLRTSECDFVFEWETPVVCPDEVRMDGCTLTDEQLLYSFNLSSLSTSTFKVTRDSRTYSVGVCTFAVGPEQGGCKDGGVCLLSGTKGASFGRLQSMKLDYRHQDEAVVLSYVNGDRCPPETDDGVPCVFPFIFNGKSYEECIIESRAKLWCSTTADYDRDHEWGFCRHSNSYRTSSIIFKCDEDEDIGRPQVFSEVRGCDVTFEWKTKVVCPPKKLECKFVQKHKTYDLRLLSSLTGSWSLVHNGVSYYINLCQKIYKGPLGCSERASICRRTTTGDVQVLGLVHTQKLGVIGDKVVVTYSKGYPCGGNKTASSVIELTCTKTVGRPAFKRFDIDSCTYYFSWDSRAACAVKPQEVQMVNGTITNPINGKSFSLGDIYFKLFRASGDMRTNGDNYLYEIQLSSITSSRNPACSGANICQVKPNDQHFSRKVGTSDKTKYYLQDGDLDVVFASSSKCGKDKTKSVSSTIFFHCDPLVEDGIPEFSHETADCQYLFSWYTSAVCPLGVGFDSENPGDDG

Row | Substance | Kd [µM]
1 | Human LIMP-2 luminal domain (residues 28-431) produced from HEK293S (GnTI-) cells, with limited glycosylation (from UniProt Q14108 28-431) (domain or fragment) | 2.2
2 | Human LIMP-2 luminal domain (residues 28-431) produced from HEK293T cells, with full glycosylation (from UniProt Q14108 28-431) (domain or fragment) | 0.97

Reference: publication PMC4104448
